Measurements: publication PMC10786891, “Massively parallel profiling of RNA-targeting CRISPR-Cas13d”

T1: EsCas13d, nuclease-dead (Eubacterium siraeum, UniProt B0MS50, R295A;H300A;R849A;H854A)
T1 sequence: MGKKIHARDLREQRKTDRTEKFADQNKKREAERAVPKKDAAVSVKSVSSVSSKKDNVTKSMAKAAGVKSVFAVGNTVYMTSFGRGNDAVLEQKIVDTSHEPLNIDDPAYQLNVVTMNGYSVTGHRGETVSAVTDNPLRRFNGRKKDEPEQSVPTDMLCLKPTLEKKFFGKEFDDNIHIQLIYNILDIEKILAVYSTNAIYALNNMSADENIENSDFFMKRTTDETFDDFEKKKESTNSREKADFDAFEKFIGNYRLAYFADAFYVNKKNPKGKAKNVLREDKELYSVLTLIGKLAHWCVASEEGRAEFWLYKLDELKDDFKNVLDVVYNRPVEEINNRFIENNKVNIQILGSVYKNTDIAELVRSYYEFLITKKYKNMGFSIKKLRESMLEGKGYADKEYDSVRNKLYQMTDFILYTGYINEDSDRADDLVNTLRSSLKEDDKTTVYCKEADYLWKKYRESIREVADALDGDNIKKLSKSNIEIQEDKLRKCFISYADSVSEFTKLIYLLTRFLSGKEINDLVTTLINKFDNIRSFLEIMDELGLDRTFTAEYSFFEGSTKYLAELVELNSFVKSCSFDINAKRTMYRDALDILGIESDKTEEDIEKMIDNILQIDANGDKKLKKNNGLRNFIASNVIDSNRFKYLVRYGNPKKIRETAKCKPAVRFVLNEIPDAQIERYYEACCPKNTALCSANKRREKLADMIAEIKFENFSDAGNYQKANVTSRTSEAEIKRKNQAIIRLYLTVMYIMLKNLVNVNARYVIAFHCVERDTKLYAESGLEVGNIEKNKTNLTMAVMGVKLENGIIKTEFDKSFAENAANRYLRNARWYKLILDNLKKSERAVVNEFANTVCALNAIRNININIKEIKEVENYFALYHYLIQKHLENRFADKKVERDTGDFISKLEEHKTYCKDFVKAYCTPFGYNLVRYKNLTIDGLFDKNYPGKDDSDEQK


biological target: T1, EsCas13d, nuclease-dead; assay: crRNA (strand 1, pre-loaded); Mg2+; 40 mM Tris-HCl pH 7.5, 150 mM NaCl, 6 mM MgCl2, 1 mM DTT, 0.1% Tween-20, 0.2 mg/ml BSA; 25 C; 10 min per concentration, then washed; details: tags: His6-TwinStrep-SUMO cleaved; N-terminal SNAP kept (SNAP-Surface 488); label: 3' end held by stalled T7 RNA polymerase

Binder | Kd [nM]
target 1 A1G,U8A (mixed) RNA 1: CACCCGUGCAAAAAUGCAGGGGUCUAAAACUGAGCGGAUAACCUCUCUAUGG RNA 2: GGGAAUGGAUCCACAUCUACGAAUUCGUACCAUAGAGAGGUUAACCGCUCGCCGAGAUCGGAAGAGCACACGU | 31.7 ± 1.8
target 1 U8C,A20U (mixed) RNA 1: CACCCGUGCAAAAAUGCAGGGGUCUAAAACUGAGCGGAUAACCUCUCUAUGG RNA 2: GGGAAUGGAUCCACAUCUACGAAUUCGUACCUUAGAGAGGUUACCCGCUCACCGAGAUCGGAAGAGCACACGU | 80 ± 8
target 1 U8A (mixed) RNA 1: CACCCGUGCAAAAAUGCAGGGGUCUAAAACUGAGCGGAUAACCUCUCUAUGG RNA 2: GGGAAUGGAUCCACAUCUACGAAUUCGUACCAUAGAGAGGUUAACCGCUCACCGAGAUCGGAAGAGCACACGU | 22.2 ± 1.7
target 1 A1C,U8A (mixed) RNA 1: CACCCGUGCAAAAAUGCAGGGGUCUAAAACUGAGCGGAUAACCUCUCUAUGG RNA 2: GGGAAUGGAUCCACAUCUACGAAUUCGUACCAUAGAGAGGUUAACCGCUCCCCGAGAUCGGAAGAGCACACGU | 25.5 ± 1.8
target 1 U3A,C7A (mixed) RNA 1: CACCCGUGCAAAAAUGCAGGGGUCUAAAACUGAGCGGAUAACCUCUCUAUGG RNA 2: GGGAAUGGAUCCACAUCUACGAAUUCGUACCAUAGAGAGGUUAUACGCACACCGAGAUCGGAAGAGCACACGU | 7 ± 0.4
target 3 insC 3' of 5,insU 3' of 5 (mixed) RNA 1: CACCCGUGCAAAAUUGCAGGGGUCUAAAACGACCUGAAUAUUUCAGAUCAAA RNA 2: GGGAAUGGAUCCACAUCUACGAAUUCGUUUUUGAUCUGAAAUAUUCACUGGUCUGCAGAUCGGAAGAGCACACGU | 5.23 ± 0.375
target 3 insG 3' of 5,insU 3' of 5 (mixed) RNA 1: CACCCGUGCAAAAUUGCAGGGGUCUAAAACGACCUGAAUAUUUCAGAUCAAA RNA 2: GGGAAUGGAUCCACAUCUACGAAUUCGUUUUUGAUCUGAAAUAUUCAGUGGUCUGCAGAUCGGAAGAGCACACGU | 18.1 ± 2.95
target 3 G4C,A5G (mixed) RNA 1: CACCCGUGCAAAAUUGCAGGGGUCUAAAACGACCUGAAUAUUUCAGAUCAAA RNA 2: GGGAAUGGAUCCACAUCUACGAAUUCGUUUUUGAUCUGAAAUAUUCGCGUCUGCAGAUCGGAAGAGCACACGU | 14.7 ± 1.1
target 3 G4C,U8G (mixed) RNA 1: CACCCGUGCAAAAUUGCAGGGGUCUAAAACGACCUGAAUAUUUCAGAUCAAA RNA 2: GGGAAUGGAUCCACAUCUACGAAUUCGUUUUUGAUCUGAAAUAGUCACGUCUGCAGAUCGGAAGAGCACACGU | 69 ± 8
target 3 insA 3' of 10,insU 3' of 5 (mixed) RNA 1: CACCCGUGCAAAAUUGCAGGGGUCUAAAACGACCUGAAUAUUUCAGAUCAAA RNA 2: GGGAAUGGAUCCACAUCUACGAAUUCGUUUUUGAUCUGAAAUAAUUCAUGGUCUGCAGAUCGGAAGAGCACACGU | 58.5 ± 6.5
target 3 insU 3' of 9,insC 3' of 7 (mixed) RNA 1: CACCCGUGCAAAAUUGCAGGGGUCUAAAACGACCUGAAUAUUUCAGAUCAAA RNA 2: GGGAAUGGAUCCACAUCUACGAAUUCGUUUUUGAUCUGAAAUAUUUCCAGGUCUGCAGAUCGGAAGAGCACACGU | 100 ± 21
target 3 insG 3' of 7,insC 3' of 4 (mixed) RNA 1: CACCCGUGCAAAAUUGCAGGGGUCUAAAACGACCUGAAUAUUUCAGAUCAAA RNA 2: GGGAAUGGAUCCACAUCUACGAAUUCGUUUUUGAUCUGAAAUAUUGCAGCGUCUGCAGAUCGGAAGAGCACACGU | 64 ± 8
target 3 insA 3' of 10,insG 3' of 2 (mixed) RNA 1: CACCCGUGCAAAAUUGCAGGGGUCUAAAACGACCUGAAUAUUUCAGAUCAAA RNA 2: GGGAAUGGAUCCACAUCUACGAAUUCGUUUUUGAUCUGAAAUAAUUCAGGUGCUGCAGAUCGGAAGAGCACACGU | 42 ± 6.5
target 3 insC 3' of 21,insG 3' of 6 (mixed) RNA 1: CACCCGUGCAAAAUUGCAGGGGUCUAAAACGACCUGAAUAUUUCAGAUCAAA RNA 2: GGGAAUGGAUCCACAUCUACGAAUUCGUUUUCUGAUCUGAAAUAUUCGAGGUCUGCAGAUCGGAAGAGCACACGU | 100 ± 40
target 3 insC 3' of 8,insA 3' of 7 (mixed) RNA 1: CACCCGUGCAAAAUUGCAGGGGUCUAAAACGACCUGAAUAUUUCAGAUCAAA RNA 2: GGGAAUGGAUCCACAUCUACGAAUUCGUUUUUGAUCUGAAAUAUCUACAGGUCUGCAGAUCGGAAGAGCACACGU | 40.5 ± 4
target 3 insG 3' of 22,insG 3' of 6 (mixed) RNA 1: CACCCGUGCAAAAUUGCAGGGGUCUAAAACGACCUGAAUAUUUCAGAUCAAA RNA 2: GGGAAUGGAUCCACAUCUACGAAUUCGUUUGUUGAUCUGAAAUAUUCGAGGUCUGCAGAUCGGAAGAGCACACGU | 90 ± 41.5
target 3 insC 3' of 22,insU 3' of 5 (mixed) RNA 1: CACCCGUGCAAAAUUGCAGGGGUCUAAAACGACCUGAAUAUUUCAGAUCAAA RNA 2: GGGAAUGGAUCCACAUCUACGAAUUCGUUUCUUGAUCUGAAAUAUUCAUGGUCUGCAGAUCGGAAGAGCACACGU | 12.3 ± 1.6
target 3 insG 3' of 22,insU 3' of 22 (mixed) RNA 1: CACCCGUGCAAAAUUGCAGGGGUCUAAAACGACCUGAAUAUUUCAGAUCAAA RNA 2: GGGAAUGGAUCCACAUCUACGAAUUCGUUUGUUUGAUCUGAAAUAUUCAGGUCUGCAGAUCGGAAGAGCACACGU | 28 ± 4.5
target 3 G3U,A5U (mixed) RNA 1: CACCCGUGCAAAAUUGCAGGGGUCUAAAACGACCUGAAUAUUUCAGAUCAAA RNA 2: GGGAAUGGAUCCACAUCUACGAAUUCGUUUUUGAUCUGAAAUAUUCUGUUCUGCAGAUCGGAAGAGCACACGU | 32.5 ± 4.5
target 3 insG 3' of 6,insC 3' of 4 (mixed) RNA 1: CACCCGUGCAAAAUUGCAGGGGUCUAAAACGACCUGAAUAUUUCAGAUCAAA RNA 2: GGGAAUGGAUCCACAUCUACGAAUUCGUUUUUGAUCUGAAAUAUUCGAGCGUCUGCAGAUCGGAAGAGCACACGU | 13.2 ± 1.5
target 3 insA 3' of 6,insA 3' of 4 (mixed) RNA 1: CACCCGUGCAAAAUUGCAGGGGUCUAAAACGACCUGAAUAUUUCAGAUCAAA RNA 2: GGGAAUGGAUCCACAUCUACGAAUUCGUUUUUGAUCUGAAAUAUUCAAGAGUCUGCAGAUCGGAAGAGCACACGU | 10.8 ± 0.9
target 3 insG 3' of 8,insU 3' of 6 (mixed) RNA 1: CACCCGUGCAAAAUUGCAGGGGUCUAAAACGACCUGAAUAUUUCAGAUCAAA RNA 2: GGGAAUGGAUCCACAUCUACGAAUUCGUUUUUGAUCUGAAAUAUGUCUAGGUCUGCAGAUCGGAAGAGCACACGU | 28.3 ± 3.3
target 3 insA 3' of 4,insC 3' of 4 (mixed) RNA 1: CACCCGUGCAAAAUUGCAGGGGUCUAAAACGACCUGAAUAUUUCAGAUCAAA RNA 2: GGGAAUGGAUCCACAUCUACGAAUUCGUUUUUGAUCUGAAAUAUUCAGACGUCUGCAGAUCGGAAGAGCACACGU | ~110
target 3 U8G,U22C (mixed) RNA 1: CACCCGUGCAAAAUUGCAGGGGUCUAAAACGACCUGAAUAUUUCAGAUCAAA RNA 2: GGGAAUGGAUCCACAUCUACGAAUUCGUUCUUGAUCUGAAAUAGUCAGGUCUGCAGAUCGGAAGAGCACACGU | 90 ± 40
target 3 C6G,A11C (mixed) RNA 1: CACCCGUGCAAAAUUGCAGGGGUCUAAAACGACCUGAAUAUUUCAGAUCAAA RNA 2: GGGAAUGGAUCCACAUCUACGAAUUCGUUUUUGAUCUGAACUAUUGAGGUCUGCAGAUCGGAAGAGCACACGU | 30.1 ± 4.65
target 3 U2A,A5G (mixed) RNA 1: CACCCGUGCAAAAUUGCAGGGGUCUAAAACGACCUGAAUAUUUCAGAUCAAA RNA 2: GGGAAUGGAUCCACAUCUACGAAUUCGUUUUUGAUCUGAAAUAUUCGGGACUGCAGAUCGGAAGAGCACACGU | 3.12 ± 0.355
target 3 insA 3' of 22,insC 3' of 22 (mixed) RNA 1: CACCCGUGCAAAAUUGCAGGGGUCUAAAACGACCUGAAUAUUUCAGAUCAAA RNA 2: GGGAAUGGAUCCACAUCUACGAAUUCGUUUACUUGAUCUGAAAUAUUCAGGUCUGCAGAUCGGAAGAGCACACGU | 15 ± 1.4
target 3 insA 3' of 14,insC 3' of 3 (mixed) RNA 1: CACCCGUGCAAAAUUGCAGGGGUCUAAAACGACCUGAAUAUUUCAGAUCAAA RNA 2: GGGAAUGGAUCCACAUCUACGAAUUCGUUUUUGAUCUGAAAAUAUUCAGGCUCUGCAGAUCGGAAGAGCACACGU | 59 ± 9.5
